“Also recorded” adds a separate entry of the source.
Columns and labels:
[1] = test system: Amb a 1-specific TCL and TCC; assay: Proliferation of Amb a 1-specific TCL and TCC with allergens and chains; assay type: cell-based, human
Protocol: Peripheral blood mononuclear cells (PBMC) were isolated from heparinized blood of allergic patients by Ficoll density gradient centrifugation. To generate allergen-specific T cell lines (TCL) and T cell clones (TCC), 1.5×10^6 PBMC were stimulated with optimal doses of ragweed or mugwort extract (4 μg/ml) or rAmb a 1.3 (10 μg/ml) in 24-well flat-bottomed culture plates (Costar, USA). After 5 days human rIL-2 (10 U/ml, Boehringer, Mannheim, Germany) were added and cultures were continued for additional 7 days. Then, T cell blasts were isolated by density centrifugation. The majority of T cell blasts was further expanded with IL-2 and irradiated PBMC. A small number of T cell blasts were used to establish monoclonal T cell cultures by limiting dilution: 0.3 T cells/well were seeded into 96 well round bottom plates (Nunclone) in the presence of 2×10^5 irradiated (60 Gy) PBMC, 0.25% v/v PHA (Gibco, USA) and rIL-2 (4 U/well) in the medium mentioned above. After 14-21 days, growing microcultures were expanded at weekly intervals with irradiated PBMC and rIL-2. The specificity of TCC was assessed in proliferation assays using irradiated allogeneic or HLA-matched PBMC or irradiated EBV-transformed allogeneic B-cells and 5 μg/ml Amb a 1.3. After 48 hours, cellular uptake of tritiated (^3H)-thymidine was performed to measure proliferation in counts per minute (cpm). When the stimulation index (SI; ratio between cpm obtained in cultures containing TCC plus autologous APC plus antigen, and cpm obtained in cultures containing TCC and APC alone) was >10, responses were considered as positive. Allergen-specific TCC were expanded by alternating turns of stimulation with autologous irradiated APC and allergen or with allogeneic feeder cells and rIL-2.
Proliferation and cytokine responses were determined.
When compared with the results of the T cell epitope recognition in Table 3, 45/46 patients (98%) would recognize one or more epitopes in the Amb a 1 alpha-chain. […]

[2] = test system: IgE of sera from ragweed pollen allergic patients; assay: SDS-PAGE IgE immunoblot with patients' sera; assay type: binding, human; conditions: standard procedure for SDS-PAGE/immunoblotting
Protocol: Membrane strips were incubated with sera from ragweed pollen allergic patients (lanes 1-29) or with serum from a non-allergic donor (lane C). Bound IgE was detected with ^125I-labeled goat anti-human IgE. Ragweed pollen-sensitized patients were recruited in Austria (lanes 1-13) or in Italy (lanes 14-29).
The proteins were analyzed via SDS-PAGE using 15% acrylamide gels and 0.1% Coomassie staining with a molecular weight standard RPN 756 (GE Healthcare Life Sciences). Sera from allergic patients were tested for positive IgE-reactivity. rAmb a 1 and rArt v 6 were separated on 15% (w/w) polyacrylamide gels and electroblotted onto a PVDF membrane. After blocking the non-specific protein binding sites with Blocking buffer (per L: 7.5 g Na2HPO4, 1 g NaH2PO4, 5 g BSA and 5 mL Tween 20), the membrane was incubated with patients' sera (diluted 1:10 in Blocking buffer) for more than 6 hours at room temperature. The membrane was washed for at least 30 minutes with Blocking buffer before it was incubated with radiolabeled [^125 I]-anti human IgE (RAST, 5 µCi, MedPro) diluted in Blocking buffer (1:40) overnight at room temperature. After a second 30-minute wash, the membrane was placed onto an imaging plate. The screen was exposed for at least 24 hours and developed using a PhosphoImager Bas-1800 II scanner for detection and the instrument's supporting software (Fujifilm).
nAmb a 1 undergoes spontaneously proteolysis during purification and it is cleaved into two chains, alpha and beta chain, respectively.

[3] = test system: Amb a 1-specific TCL and TCC; assay: Cytokine production in TCL and TCC (ELISA of supernatants); assay type: cell-based, human
Protocol: T cells were washed and incubated with irradiated autologous APC in the presence of the stimulant (5 μg/ml) for 48 hours. Cytokine levels in the resulting supernatants were measured in ELISA using matched antibody pairs (Endogen, USA) (sensitivity limits: IL-4: 9 pg/ml, IFN-γ: 9 pg/ml). Cultures containing TCC and APC alone served as negative controls. TCC with a ratio of IFN-γ/IL-4>10 were classified as Th1, 0.1-10 as Th0 and <0.1 as Th2. […] Proliferation and cytokine responses were determined.

[4] = test system: IgE of sera from ragweed pollen allergic patients; assay: IgE dot-blot / non-denaturing IgE binding of recombinant Amb a 1.3; parameters: species or system human; conditions: sera from 17 ragweed pollen allergic patients
Text: E. coli-produced rAmb a 1.3 was purified as described above and dotted on nitrocellulose membranes.
Thus, another approach for producing recombinant reagents with full IgE-binding activity was pursued, as described in section 4. Despite its low IgE-binding activity, rAmb a 1.3 was successfully used in vitro for T cell epitope mapping and proliferation assays, as correct folding is not essential for T cell recognition (see example 2).

[5] = test system: IgE of sera from ragweed allergic patients; assay: Human IgE ELISA of purified alpha chain; assay type: binding; conditions: modified (version 1) alpha chain of Amb a 1.3; 12 patients (FIG. 19)
Text: If a peptide of the invention is to be used as a diagnostic reagent, it is not necessary that the peptide or protein has reduced IgE binding activity compared to the native Amb a 1 allergen. IgE binding activity of peptides can be determined by, for example, an enzyme linked immunosorbent assay (ELISA) using, for example, sera obtained from an individual (i.e. an allergic individual) that has been previously exposed to the native Amb a 1. Briefly, a peptide to be tested is coated onto wells of a microtiter plate. After washing and blocking the wells, antibody solution consisting of the serum or plasma of an allergic individual who has been exposed to the peptide being tested or the protein from which it was derived is incubated in the wells. The plasma is generally depleted of IgG before incubation. However, the depletion is not necessary if highly specific anti IgE-antibodies are used. Furthermore, allergic individuals who have not undergone specific immunotherapy have in some cases almost no detectable IgG antibodies specific for the allergen in question. […] The amount of IgE binding is then quantified and compared to the amount of IgE bound by a purified native Amb a 1 protein. Alternatively, the binding activity of a peptide can be determined by Western blot analysis. […] After incubation with the labelled secondary antibody, the amount of IgE bound is then determined and quantified. […]

B1: rAmb a 1.3: E. coli-produced full-length recombinant Amb a 1.3 isoform (R2 clone) (protein)
chain: AEGVGEILPSVNETRSLQACEALNIIDKCWRGKADWENNRQALADCAQGFAKGTYGGKWGDVYTVTSNLDDDVANPKEGTLRFAAAQNRPLWIIFKNDMVINLNQELVVNSDKTIDGRGVKVEIINGGLTLMNVKNIIIHNINIHDVKVLPGGMIKSNDGPPILRQASDGDTINVAGSSQIWIDHCSLSKSFDGLVDVTLGSTHVTISNCKFTQQSKAILLGADDTHVQDKGMLATVAFNMFTDNVDQRMPRCRFGFFQVVNNNYDRWGTYAIGGSSAPTILCQGNRFLAPDDQIKKNVLARTGTGAAESMAWNWRSDKDLLENGAIFVTSGSDPVLTPVQSAGMIPAEPGEAAIKLTSSAGVFSCHPGAPC
modifications: left off: things letters cannot carry
T cell proliferation compared with natural Amb a 1 ([1]; PBMC, TCL and TCC, different concentrations): comparable T cell proliferations
reaction with patients IgE after reduction and heat treatment [2]: reacted with patients IgE
cytokine production compared with ragweed extract (FIG. 5) or natural Amb a 1 (FIG. 6) [3]: comparable cytokine production
IgE reactivity in non-denaturing assays (dot blot, ELISA) [4]: not able to bind human IgE; also recorded: very weak or no IgE reactivity

B2: alpha chain of Amb a 1.3 (modified version 1): recombinant modified (version 1) Amb a 1.3 alpha chain, aa 174-397, 224 amino acids; called alpha chain in Example 4 (protein)
alpha: VLPGGMIKSNDGPPILRQASDGDTINVAGSSQIWIDHCSLSKSFDGLVDVTLGSTHVTISNCKFTQQSKAILLGADDTHVQDKGMLATVAFNMFTDNVDQRMPRCRFGFFQVVNNNYDRWGTYAIGGSSAPTILCQGNRFLAPDDQIKKNVLARTGTGAAESMAWNWRSDKDLLENGAIFVTSGSDPVLTPVQSAGMIPAEPGEAAIKLTSSAGVLSCRPGAPC
modifications: Amb a 1 alpha chain
reaction of 2 TCC specific for epitopes within Amb a 1-alpha ([1]; modified (version 1) chains of Amb a 1.3): reacted
IgE-binding activity in vitro (ELISA) [5]: low/no IgE-binding activity

Reference: US9360486B2, “Allergen fragments” (Biomay AG, priority 2007, dated 2016)
